Measurements published in article PMC8564334.

Tested on: Histone H3;Histone H4 (His6-TEV) (Drosophila melanogaster;Drosophila melanogaster)
Test: restriction enzyme protection
Conditions: purified tetrasome, Wheat germ cell-free co-expression with NAP1 at 26 C for 6 h, TALON purification in 10 mM Tris/HCl pH 7.4, 40 mM NaCl (elution 250 mM imidazole), 6% native …

601_185bp showed a binding signal (% protection from PmlI) (37 C) of 81 and a binding signal (% protection from BsiWI) (55 C) of 93.6.
